The supplement of paper PMC9170038

Tests used:
[1] = tested on: MS2 coat protein; experiment: apparent KD of MS2 coat protein, switch ON state; designed switch direction (-1 OFF switch, 1 ON switch): -1; higher = weaker reporter binding; conditions: FMN input: 0 or 200 uM; Eterna round: R93 (includes R88 designs)
Method in brief: (§1)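 Apparent KD stands for the median, per design, of fits to normalised cluster binding curves. The curves came from titrating on-chip-transcribed RNA switches on Illumina sequencing clusters with SNAP-549-labelled MS2 coat protein, twofold from 0.7 or 1.5 nM to 3 µM. Buffer was 100 mM Tris-HCl pH 7.5, 80 mM KCl, 4 mM MgCl2, without or with constant ligand.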

[2] = tested on: MS2 coat protein; experiment: apparent KD of MS2 coat protein, switch OFF state (with FMN for OFF switches, without FMN for ON switches); designed switch direction (-1 OFF switch, 1 ON switch): -1; higher = weaker reporter binding; conditions: FMN input: 0 or 200 uM; Eterna round: R93 (includes R88 designs)
Method in brief: as §1

Row | Sequence | apparent KD of MS2 coat protein [1] | apparent KD of MS2 coat protein [2]
1 | AGCUAGUCAGGAUAUACAAAAAUGCUAGAAGACGUAAGGGAACAUGAGGAUCACCCAUGUAGAAGGGACUAGCA [Diamond 45] | 37.2 nM | 58.3 nM
2 | AGCUAGUCAGGAUAUACAUGAAAAAAAAAAAAAAAAAAAAAACAUGAGGAUCACCCAUGUAGAAGGGACUAGCA [Starry Esclusion 2 (jandersonlee round 1 mod)] | 95.6 nM | 98.9 nM
3 | AGCUAGUCAGGAUAUACGAAAAUGUCAGAAGCUGAGAAGGGACAUGAGGAUCACCCAUGUAGAAGGGACUAGCA [Diamond 37] | 70.2 nM | 316 nM
4 | AGCUAGUCAGGAUAUACGAACAUGUAAAAAGAAGUGAAGGGACAUGAGGAUCACCCAUGUAGAAGGGACUAGAA [74%, Web mod - With 3 less C's] | 55.5 nM | 109 nM
5 | AGCUAGUCAGGAUAUACGAACAUGUCAAAAGACGUGAAGGGACAUGAGGAUCACCCAUGUAGAAGGGACUAGCG [salish99-ex2-14] | 36 nM | 103 nM
6 | AGCUAGUCAGGAUAUACGAACAUGUCAUAAGACGUGAAGGGACAUGAGGAUCACCCAUGUAGAAGGGACUAGCA [74%, Web mod - With 1 more U's] | 36.7 nM | 139 nM
7 | AGCUAGUGAGGAUAUACGAACAUGUCAACAGACUGUAAGGGACAUGAGGAUCACCCAUGUAGAAGGCACUAGCA [Diamond 56] | 59.4 nM | 174 nM
8 | AGCUGGAGAGGAUAUACGUAGGAAAAAAAAGUCUGAUCCCUACAUGAGGAUCACCCAUGUAGAAGGCUCUGGCA [Ex2 Design 161: Sub-opt 25] | 63.5 nM | 63.6 nM
9 | AGGAAACAUGAGGAUCACCCAUGUAAGGAUAUGUGAAAGAAAAGAAAAGAAAGAAGAAACAGAAGGUACAAGAA [Qa'a] | 46.3 nM | 42.4 nM
10 | AGGAAACAUGAGGAUCACCCAUGUAAGGAUAUGUGAAAGAAAAGAAAAGAAAGAAGAAGCAGAAGGUACAAGAA [Anedjib] | 34.9 nM | 47.2 nM
11 | AGGAAACAUGAGGAUCACCCAUGUCAGGAUAUAUGAAAGAAAAGAAAAGAAAGAAGAAGUAGAAGGGACAAGAA [Ka] | 29.8 nM | 29.9 nM
12 | AGGAAACAUGAGGAUCACCCAUGUGAGGAUAUGAACGAAAAUAAAUAAAAAUAAAAGUUCAGAAGGCAUAAAAA [66%, Wbt, 4] | 30 nM | 35.6 nM
13 | AGGAAACAUGAGGAUCACCCAUGUGAGGAUAUGAACGAAAUAAAAUAAAAAUAAAAGUUCAGAAGGCAUAAAAA [Mat - Exclusion 1 - Eli mod - D7] | 26.8 nM | 24.4 nM
14 | AGGAAACAUGAGGAUCACCCAUGUUAGGAUAUGAACGAAAAUAAAUAAAAAUAAAAGUUCAGAAGGAACAAAAA [66%, Wbt, 18] | 27 nM | 41.9 nM
15 | AGGCAGACAGGAUAUACUUGGGCAGCCAAUAUAAUAAUAUAACAUGAGGAUCACCCAUGUAGAAGGGUCAGAAA [JR_Exc002_Sub209] | 62.6 nM | 86.7 nM
16 | AGGCUCCUAGGAUAUACUGGCUGGCCUCCACAAAAGAAAAUACAUGAGGAUCACCCAUGUAGAAGGAGGAGUGG [Geesar] | 19.3 nM | 22.7 nM
17 | AGGGAGUGAGGAUAUACGAAAAAAAAACAACGAAAAAAAGAGUAGAAGGCACAUGAGGAUCACCCAUGUAAGAA [milkweed 14] | 44.5 nM | 25.3 nM
18 | AGGGAGUGAGGAUAUCCGAAAAAAAAACAACGAAAAAAAGAGGAGAAGGCACAUGAGGAUCACCCAUGUAAGAA [milkweed 15] | 40.7 nM | 28.6 nM
19 | AGGUACCUAGGAUAUACAUGAGGAUCACCCAUGUCACAAAUAAAACACAGGUAUCCUGGUAGAAGGAGGAACAA [Veinle] | 24.1 nM | 36.5 nM
20 | AGUCAUACAGGAUAUACAUGAGGAUCACCCAUGUAAAUCCUAAAAAGGUGAUCCUCAUGUAGAAGGGUAUGACA [EX3 219: Super Stable 19] | 21.8 nM | 17.7 nM
